{"source": "the nanobody polyreactivity screen of Harvey et al. (2022)", "data": [{"experiment": "yeast display, Sf9 membrane polyspecificity reagent, FACS + sequencing; frameworks hold sequencing errors", "outline": "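Galactose induction of a Saccharomyces cerevisiae BJ5465 synthetic nanobody display library ran 36–48 hours. The cells were then stained for 1 hour at 4 °C with 10% biotinylated, detergent-solubilized Sf9 membrane reagent, pulled down on streptavidin microbeads and FACS-sorted into low and high (top ~1%) gates on expression and reagent-binding fluorescence. Labels for polyreactivity follow the gate of origin.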", "values": [{"sequence": "QVQLVESGGGLVQAGGSLRLSCAASGFTFKRYAMGWYRQAPGKERELVAAISYSGGSTYYADSVKGRFTISRDNAKNTVYLQMNSLKPEDTAVYYCAALPGRRLWTYDYWGQGTQVTVSS", "polyreactivity (PSR sort gate)": "high polyreactivity"}, {"sequence": "QVQLVESGGCLVQAGGSLRFSCAASGSTFGWYAMGWYRHAPGKERELVAAITSVGSTYYADYVKGRFRISRDNAKNTVYLQMNSLKPEDTAVYYCAKRFGSGWAWFGYWGQGTQVTVSS", "polyreactivity (PSR sort gate)": "low polyreactivity"}, {"sequence": "QVQLVESVGGLVQAGGSLRLSCAASGRIFPYYAMGWYIQAPGKERELVATITWRGGITYYADSVKGRFTISRDNAKNTVYLQMNSLKPEDTSVYYCAVRKVYRSSFDYWGQGTQVTVSS", "polyreactivity (PSR sort gate)": "high polyreactivity"}, {"sequence": "QVQLVESGGGLVQAGGSLRLSCAASGSTFRRNAMGWYRQAPGKERELVAAISAGGGSTYYADSVKGRFTISRDNAKNTVYLQMNSLKPEDTAVYYCNVAGSGVRRMGYWGQGTQVTVSS", "polyreactivity (PSR sort gate)": "high polyreactivity"}, {"sequence": "QVQLVESGAGLVQAGGSLRLSCAASGFTFYPYAMGLYRQAPGKERELVAAINSGGSTYYADSVKGRFTISRDNAKNTVYLQMNSLKPEDTAVYYCAAYGKRGAVAFYYWGQGTQVTVSS", "polyreactivity (PSR sort gate)": "high polyreactivity"}, {"sequence": "QFQLVESGGGLVQAGGSLRLSCAASGFTSYRNALGWYRQAPGKERELVAAISRGDSTYYADSVKGRFTISRDNAKNTVYLQMNSLKAEDTAVYYCATPPTVYGWLAGYDYWGQGTQVTVSS", "polyreactivity (PSR sort gate)": "low polyreactivity"}, {"sequence": "QVQLVESGGGIVQAGGSLRLSCAASGNAMGWYRQAPGKERELVASINRSGGRTYYADSVKGRFTISRDNAKNTVYLQMNSLKPEDTAVYYCAARPHYDSDYWGQGTQVTVSS", "polyreactivity (PSR sort gate)": "low polyreactivity"}, {"sequence": "QVQLVESAAGLVQAGGSLRLSCAPSGSTFPRYAMGWYRQAPGKERELVAAITKNGGYTYYADSVKGRFTISRDNAKNTVYLQMNSLKPEDTAVYYCAAERWYSCYRVGVSYDYWGQGTQVTVSS", "polyreactivity (PSR sort gate)": "high polyreactivity"}, {"sequence": "QVQLVESGGGLVQAGGSLRLSCAASGFIFYGYAMGWYRQAPGKERELVAGISTGGSTNYADSVKGRFTISRDNAKNTVYLQMNSLKPEDTAVYYCAKRAYFYYGRYDYWGQGTQVTVSS", "polyreactivity (PSR sort gate)": "low polyreactivity"}, {"sequence": "QVQLVESGGGLVQAGGSLRLTCAASGFIIKFYDMGWYRQAPGKERELVATITFSSGTTYYADSVKGRFTISRDNAKNTVYLQMNSLKPEDTAVYYCAAYTLPAWPYDGPAGPRYDYWGQGTQVTVSS", "polyreactivity (PSR sort gate)": "low polyreactivity"}, {"sequence": "QVQLVESGGGLVQAGGSLRLSCAASGIIFLENAMGWFRQAPGKESELVAGINGGGRTDYADSVKGRFTISRDNAKHTVYLQMNSLKPEDTAVYYCAAESSWYSPDVNYCGQGTQVTVSS", "polyreactivity (PSR sort gate)": "low polyreactivity"}, {"sequence": "QVQLVESGGGLVQAGGSLRLSCAASGFIFVYYVMGWYRTAPGKERELVAAITQSGGSTYYADSVKGRFTISRDNAKNTVYLQMNSLKPEDTAVYYCAAYRRTTGGGYDYWGQGTQVTVSS", "polyreactivity (PSR sort gate)": "high polyreactivity"}, {"sequence": "QVQLVESGGGLVQAGGSLRLSCAASGSNLVWNAMGWYRQAPGKERELVAAIDRDTTTYYADSVKGRFTISRDNAKNTVYLQMNSLKPEDTAVYYCAAESWYYLYDYWGQGTQVTVSS", "polyreactivity (PSR sort gate)": "high polyreactivity"}, {"sequence": "QVQLVESGGGLVQAGGSLRLSCAASGYIFDVYAMGWYRQAPGKERELVATISSGTGITKYADSVKGRFTISRDNAKNTVYLQMNSLKPEDTAVYYCAADYASLSWLGFYYWGQGTQVTVSS", "polyreactivity (PSR sort gate)": "low polyreactivity"}, {"sequence": "QVQLVESGGGLEQAGGSLRLSCAASGRTFYYYAMGWYRQAPGKERELVAAIRWRGGRTYADSVKGRFTISRDNAKNTVYLQMKSLKPEDTAVYYCAVDSFYRHASLYDYWGQGTQVTVSS", "polyreactivity (PSR sort gate)": "high polyreactivity"}, {"sequence": "QVQLVESGGGLVQAGGSLRLSCAASGSTFNRYAMGWYRQAPGKERELVASISWGGGRTYYADSVKGRFTISRDNAKNTVYLQMNSLKPEDSAVYYCAAGGALASQWSTKLYDYWGQGTQVTVSS", "polyreactivity (PSR sort gate)": "low polyreactivity"}, {"sequence": "QVQLVESGGGLVQAGGSLRLSCAASGSIFPVYAMGWYRQSPGKERELVADITYTTGSTYYADSVKGRFTISRDNAKNTVYLQMNSLKPEDSAVYYCAKDFGFQSDSWGQGTQVTVSS", "polyreactivity (PSR sort gate)": "low polyreactivity"}]}]}
